Measurements reported in PMC3626604, “The C-Type Lectin of the Aggrecan G3 Domain Activates Complement” (PLoS ONE, 2013).

Target: T1, factor H (human (endogenous in normal human serum), UniProt P08603 19-1231)
T1 construct: complement factor H; also called FH
Experiment: ELISA; proteins coated (G3 fragments 5 µg/ml, fibromodulin 2.5 µg/ml); heat-inactivated normal human serum diluted in 50 mM Hepes pH 7.4, 150 mM NaCl, 2 mM CaCl2, 50 µg/ml BSA; 1 h at RT; detected with anti-FH
Settings: one partner purified

T1 sequence (P08603 19-1231): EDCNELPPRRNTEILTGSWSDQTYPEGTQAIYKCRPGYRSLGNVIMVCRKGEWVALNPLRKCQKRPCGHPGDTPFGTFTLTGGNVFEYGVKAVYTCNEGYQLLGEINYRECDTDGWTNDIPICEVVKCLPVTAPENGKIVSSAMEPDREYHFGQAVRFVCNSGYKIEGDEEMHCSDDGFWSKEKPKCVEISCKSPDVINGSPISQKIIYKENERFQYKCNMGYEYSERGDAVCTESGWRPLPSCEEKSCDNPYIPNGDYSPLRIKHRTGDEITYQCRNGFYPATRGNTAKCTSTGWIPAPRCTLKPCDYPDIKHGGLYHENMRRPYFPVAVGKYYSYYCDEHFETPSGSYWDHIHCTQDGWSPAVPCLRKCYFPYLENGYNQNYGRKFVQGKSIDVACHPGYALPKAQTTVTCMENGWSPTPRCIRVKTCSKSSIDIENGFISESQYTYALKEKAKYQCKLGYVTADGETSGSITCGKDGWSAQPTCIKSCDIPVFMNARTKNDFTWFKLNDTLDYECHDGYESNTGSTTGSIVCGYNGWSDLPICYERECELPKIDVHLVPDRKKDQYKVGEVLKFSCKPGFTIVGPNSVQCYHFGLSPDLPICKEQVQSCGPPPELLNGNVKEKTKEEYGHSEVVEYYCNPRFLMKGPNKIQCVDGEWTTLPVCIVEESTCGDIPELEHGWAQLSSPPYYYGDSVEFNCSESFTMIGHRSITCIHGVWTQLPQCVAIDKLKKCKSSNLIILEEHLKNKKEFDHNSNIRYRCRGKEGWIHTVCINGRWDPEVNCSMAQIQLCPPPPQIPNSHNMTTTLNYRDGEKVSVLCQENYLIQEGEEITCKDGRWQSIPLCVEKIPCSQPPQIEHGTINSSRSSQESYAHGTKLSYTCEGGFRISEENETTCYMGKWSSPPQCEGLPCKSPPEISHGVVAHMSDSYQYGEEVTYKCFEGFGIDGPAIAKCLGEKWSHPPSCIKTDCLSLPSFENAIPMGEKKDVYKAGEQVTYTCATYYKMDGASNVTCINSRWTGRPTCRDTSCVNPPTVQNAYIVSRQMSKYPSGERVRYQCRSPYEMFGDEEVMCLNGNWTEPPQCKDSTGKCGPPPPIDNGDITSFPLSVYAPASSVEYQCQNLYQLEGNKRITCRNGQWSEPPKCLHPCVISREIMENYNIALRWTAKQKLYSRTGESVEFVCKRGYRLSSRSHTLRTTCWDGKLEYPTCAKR

B1: recombinant bovine fibromodulin (natural protein, UniProt P13605 19-376, looked up)
chain: QYEEDSHWWFQFLRNQQSTYDDPYDPYPYEPYEPYPYGGEEGPAYAYGSPPQPEPRDCPQECDCPPNFPTAMYCDNRNLKYLPFVPSRMKYVYFQNNQISSIQEGVFDNATGLLWIALHGNQITSDKVGKKVFSKLRHLERLYLDHNNLTRIPSPLPRSLRELHLDHNQISRVPNNALEGLENLTALYLHHNEIQEVGSSMKGLRSLILLDLSYNHLRKVPDGLPSALEQLYLEHNNVFSVPDSYFRGSPKLLYVRLSHNSLTNNGLASNTFNSSSLLELDLSYNQLQKIPPVSTNLENLYLQGNRINEFSISSFCTVVDVMNFSKLQVLRLDGNEIKRSAMPADAPLCLRLASLIEI
notes: fibromodulin, bovine; source: recombinant
- binding result: binds
